# Measurements reported in the supplement of paper PMC9112550, “Optimization of the antimicrobial peptide Bac7 by deep mutational scanning” (BMC Biology, 2022).
# System: Escherichia coli TOP10
# Test: shrunken log2 fold change of peptide-encoding DNA abundance (4.5 h post-induction vs induction); higher = less antimicrobial activity (less host growth inhibition)
# Conditions: time post-induction: 4.5 h; library: site-saturation at positions 5, 18, 19, 20
# 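Further: peptides expressed intracellularly from a pBAD plasmid library in pooled LB shake-flask culture, induced with 0.3% L-arabinose, DNA abundance read by NGS, three biological replicates, DESeq2 with apeglm shrinkage.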
row,Sequence,shrunken log2 fold change
1,RRIRGRPPRLPRPRPRPWHIPRP,-0.111
2,RRIRFRPPRLPRPRPRPMTFPRP,-0.0585
3,RRIRQRPPRLPRPRPRPVVHPRP,-0.164
4,RRIRWRPPRLPRPRPRPGVYPRP,0.221
5,RRIRLRPPRLPRPRPRPCAYPRP,-0.189
6,RRIRGRPPRLPRPRPRPPGKPRP,0.807
7,RRIRTRPPRLPRPRPRPCLVPRP,-0.175
8,RRIRVRPPRLPRPRPRPIQQPRP,0.00847
9,RRIRHRPPRLPRPRPRPQNEPRP,-0.133
10,RRIRWRPPRLPRPRPRPDCYPRP,0.148
11,RRIRARPPRLPRPRPRPMMIPRP,0.313
12,RRIRIRPPRLPRPRPRPFWDPRP,-0.0885
13,RRIRPRPPRLPRPRPRPGPYPRP,-0.0184
14,RRIRDRPPRLPRPRPRPATTPRP,0.163
15,RRIRYRPPRLPRPRPRPPADPRP,0.115
16,RRIRWRPPRLPRPRPRPNKSPRP,0.0866
17,RRIRHRPPRLPRPRPRPRMWPRP,-0.237
18,RRIRCRPPRLPRPRPRPPVVPRP,0.0152
19,RRIRSRPPRLPRPRPRPHSWPRP,0.122
20,RRIRRRPPRLPRPRPRPKMCPRP,-0.0385

row,Sequence,shrunken log2 fold change
1,RRIRQRPPRLPRPRPRPYDMPRP,-0.626
2,RRIRLRPPRLPRPRPRPLFTPRP,-0.232
3,RRIRSRPPRLPRPRPRPKLYPRP,-0.199
4,RRIRLRPPRLPRPRPRPMYDPRP,-0.787
5,RRIRLRPPRLPRPRPRPAHVPRP,0.241
6,RRIRARPPRLPRPRPRPGHIPRP,0.0195
7,RRIRERPPRLPRPRPRPCGFPRP,-0.303
8,RRIRPRPPRLPRPRPRPFQSPRP,0.0035
9,RRIRCRPPRLPRPRPRPFVAPRP,-0.159
10,RRIRHRPPRLPRPRPRPVGEPRP,0.053
11,RRIRTRPPRLPRPRPRPLRYPRP,-0.255
12,RRIRGRPPRLPRPRPRPVARPRP,0.58
13,RRIRIRPPRLPRPRPRPCMVPRP,-1.06
14,RRIRSRPPRLPRPRPRPVTQPRP,0.168
15,RRIRCRPPRLPRPRPRPPAMPRP,0.241
16,RRIRHRPPRLPRPRPRPFPHPRP,0.188
17,RRIRYRPPRLPRPRPRPFSHPRP,-0.0363
18,RRIRHRPPRLPRPRPRPDCHPRP,0.0149
19,RRIRQRPPRLPRPRPRPCGHPRP,0.0101
20,RRIRARPPRLPRPRPRPHQRPRP,0.0964

row,Sequence,shrunken log2 fold change
1,RRIRHRPPRLPRPRPRPAHRPRP,0.162
2,RRIRCRPPRLPRPRPRPIAEPRP,0.247
3,RRIRSRPPRLPRPRPRPRTFPRP,0.00214
4,RRIRPRPPRLPRPRPRPVIFPRP,-0.11
5,RRIRFRPPRLPRPRPRPCHWPRP,-0.127
6,RRIRVRPPRLPRPRPRPKTIPRP,-0.26
7,RRIRQRPPRLPRPRPRPCMYPRP,-0.166
8,RRIRARPPRLPRPRPRPEAPPRP,1.11
9,RRIRHRPPRLPRPRPRPEMYPRP,0.000706
10,RRIRNRPPRLPRPRPRPVNRPRP,0.00717
11,RRIRRRPPRLPRPRPRPGPKPRP,0.255
12,RRIRLRPPRLPRPRPRPYTQPRP,-0.845
13,RRIRGRPPRLPRPRPRPWLKPRP,-0.24
14,RRIRERPPRLPRPRPRPNQNPRP,-0.188
15,RRIRDRPPRLPRPRPRPNRKPRP,-0.355
16,RRIRFRPPRLPRPRPRPIMIPRP,-0.113
17,RRIRMRPPRLPRPRPRPSKDPRP,0.37
18,RRIRFRPPRLPRPRPRPAHEPRP,0.0902
19,RRIRRRPPRLPRPRPRPFNKPRP,-0.712
20,RRIRWRPPRLPRPRPRPERRPRP,0.327
